Experimental data taken from publication PMC2810291, “Identification and characterization of endonuclein binding proteins: evidence of modulatory effects on signal transduction and chaperone activity” (BMC Biochemistry, 2009).

Molecular target: T1, recombinant endonuclein (human, UniProt Q13610 2-501)
T1 construct: human endonuclein, coding region Asn2-Ser501 of the 2309.2 cDNA, in the vector pT7-PL; also called IEF SSP 9502; PWP1 (yeast homologue's name)
Experiment: SPR; BIAcore 2000; endonuclein amine-coupled to a CM5 chip (3302 RU); analytes at 1 μM or 5 μM in 10 mM Hepes, 150 mM NaCl, 5 mM CaCl2, 1 mM EGTA, pH 7.4, 0.005% P20; control flow channel subtracted
Settings: both partners purified

binding result: binds
B1: recombinant TIP-1 as fusion protein with glutathion S-transferase (natural protein, UniProt O14907 1-124, looked up)
chain: MSYIPGQPVTAVVQRVEIHKLRQGENLILGFSIGGGIDQDPSQNPFSEDKTDKGIYVTRVSEGGPAEIAGLQIGDKIMQVNGWDMTMVTHDQARKRLTKRSEEVVRLLVTRQSLQKAVQQSMLS
notes: TIP-1, coding region of the cDNA amplified with primers from the start codon (ATG-TCC-TAC-ATC-CCG-GGC-CA) to the stop codon, in pGEX-4T3; pGEX-4T3 is known to place GST at the N-terminus; also called GST-TIP-1; source: E. coli, purified (pGEX, according to the manufacturer)
